Laboratory results published in patent US20230265151A1, “GIP/GLP1 CO-AGONIST COMPOUNDS” (priority 2020, published 2023).

T1: human GIP receptor (human, UniProt P48546 22-466)
T1 construct: whole, on cells; also called hGIPR; human glucose-dependent insulinotropic polypeptide receptor
T1 sequence (looked up): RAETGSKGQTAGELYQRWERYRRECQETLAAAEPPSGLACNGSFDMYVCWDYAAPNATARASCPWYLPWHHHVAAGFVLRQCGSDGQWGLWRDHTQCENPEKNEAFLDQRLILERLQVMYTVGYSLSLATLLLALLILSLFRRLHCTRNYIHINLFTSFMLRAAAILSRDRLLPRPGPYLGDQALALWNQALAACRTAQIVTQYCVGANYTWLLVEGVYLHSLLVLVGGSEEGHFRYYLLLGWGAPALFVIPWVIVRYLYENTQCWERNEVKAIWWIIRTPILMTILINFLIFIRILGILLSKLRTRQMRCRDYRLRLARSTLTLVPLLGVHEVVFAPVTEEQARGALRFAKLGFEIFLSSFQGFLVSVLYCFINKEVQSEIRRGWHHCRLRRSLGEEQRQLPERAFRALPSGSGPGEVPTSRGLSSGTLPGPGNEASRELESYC


Key:
[1] = target: human glucagon receptor (human, UniProt P47871 26-477); experiment: cell-based or functional assay
[2] = target: T2, human glucagon receptor (human, UniProt P47871 26-477); experiment: SPA competition vs [125I]-Gcg, hGcgR membranes
T2 construct: whole, on cells; also called hGCGR; hGcgR
Description: The binding buffer contains 25 mM 4-(2-hydroxyethyl)-1-piperazineethanesulfonic acid (HEPES), pH 7.4, 2.5 mM CaCl₂, 1 mM MgCh, 0.1% (w/v) bacitracin (Research Products), 0.003% (w/v) Polyoxyethylenesorbitan monolaurate (TWEEN®-20), and Roche Complete™ Protease Inhibitors without EDTA. […] Plates are sealed and mixed on a plate shaker (setting 6) for 1 minute and read with a PerkinElmer Trilux MicroBeta® scintillation counter after 12 hours of incubation/settling time at room temperature.
(§1) Data are analyzed using four-parameter (curve maximum, curve minimum, IC₅₀, Hill slope) nonlinear regression routines (Genedata Screener, version 12.0.4, Genedata AG, Basal, Switzerland). […] Values for Kᵢ are reported as the geometric mean, with error expressed as the standard error of the mean (SEM) and n is equal to the number of independent replicates (determined in assays performed on different days).
T2 sequence (P47871 26-477): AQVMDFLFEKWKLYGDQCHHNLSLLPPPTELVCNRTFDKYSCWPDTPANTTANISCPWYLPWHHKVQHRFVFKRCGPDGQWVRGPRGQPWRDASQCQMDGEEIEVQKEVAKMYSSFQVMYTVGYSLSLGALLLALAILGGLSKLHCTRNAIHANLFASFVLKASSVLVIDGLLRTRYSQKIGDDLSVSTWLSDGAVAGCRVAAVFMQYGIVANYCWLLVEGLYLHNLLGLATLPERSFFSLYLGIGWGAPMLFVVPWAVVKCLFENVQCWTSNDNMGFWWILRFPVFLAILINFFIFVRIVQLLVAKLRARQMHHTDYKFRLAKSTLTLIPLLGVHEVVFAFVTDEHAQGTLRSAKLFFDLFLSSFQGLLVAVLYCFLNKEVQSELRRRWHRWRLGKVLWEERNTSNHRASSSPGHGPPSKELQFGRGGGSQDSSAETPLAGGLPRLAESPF

[3] = target: T1, human GIP receptor; experiment: SPA competition vs [125I]-GIP, hGIPR membranes
Description: The binding buffer contains 25 mM HEPES, pH 7.4, 2.5 mM CaCl₂, 1 mM MgCl₂, 0.1% (w/v) bacitracin, 0.003% (w/v) TWEEN®-20, and Roche Complete™ Protease Inhibitors without EDTA. […] Plates are sealed and mixed on a plate shaker (setting 6) for 1 minute and read with a PerkinElmer Trilux MicroBeta® scintillation counter after 2.5 to 12 hours of incubation/settling time at room temperature.
as §1, with “days). Geometric Means are calculated as follows: […]” for “days).”

[4] = target: T3, human GLP-1 receptor (human, UniProt P43220 24-463); experiment: SPA competition vs [125I]-GLP-1, hGLP-1R membranes
T3 construct: whole, on cells; also called hGLP-1R; human glucagon-like peptide-1 receptor
Description: The binding buffer contains 25 mM HEPES, pH 7.4, 2.5 mM CaCl₂, 1 mM MgCl₂, 0.1% (w/v) bacitracin, 0.003% (w/v) TWEEN®-20, and Roche Complete™ Protease Inhibitors without EDTA.
as §1, with “days). Geometric Means are calculated as follows: […]” for “days).”

Row | Binder | cAMP EC50 (1.0% HSA) [1] [nM] | Ki [2] [nM] | Ki [3] [nM] | Ki [4] [nM]
1 | YXEGTXTSDXSIXLDXKAQXEFIXXLIEGGKSSGAPPPS (Aib2, αMeF(2F)6, 4Pal10, αMeL13, Orn16, Aib20, D-Glu24, αMeY25; acylated K17, K31 (groups as in name); C-terminal amide) [Y-Aib-EGT-αMeF(2F)-TSD-4Pal-SI-αMeL-LD-Orn-K((εK)-(εK)-(γ-Glu)-CO-(CH2)12-CO2H)AQ-Aib-EFI-(D-Glu)-αMeY-LIEGGK((εK)-(εK)-(γ-Glu)-CO-(CH2)12-CO2H)SSGAPPPS-NH2, listing 1 of 2 here] | > 9950 | – | – | –
2 | YXEGTXTSDXSIXLDXKAQXKFIXXLIEGGPSSGAPPPS (Aib2, αMeF(2F)6, 4Pal10, αMeL13, Orn16, Aib20, D-Glu24, αMeY25; acylated K17, K21 (groups as in name); C-terminal amide) [Y-Aib-EGT-αMeF(2F)-TSD-4Pal-SI-αMeL-LD-Orn-K((2-[2-(2-Amino-ethoxy)-ethoxy]-acetyl)2-CO-(CH2)12-CO2H)AQ-Aib-K((2-[2-(2-Amino-ethoxy)-ethoxy]-acetyl)2-CO-(CH2)12 …, listing 1 of 5 here] | > 9950 | – | – | –
3 | YXEGTXTSDXSIXLDXKAQXEFIXXLIKGGPSSGAPPPS (Aib2, αMeF(2F)6, 4Pal10, αMeL13, Orn16, Aib20, D-Glu24, αMeY25; acylated K17, K28 (groups as in name); C-terminal amide) [Y-Aib-EGT-αMeF(2F)-TSD-4Pal-SI-αMeL-LD-Orn-K((2-[2-(2-Amino-ethoxy)-ethoxy]-acetyl)2-CO-(CH2)12-CO2H)AQ-Aib-EFI-(D-Glu)-αMeY-LIK((2-[2-(2-Amino-ethoxy)-ethoxy]- …, listing 1 of 2 here] | > 9950 | – | – | –
4 | YXEGTXTSDXSIXLDXKAQXEFIXXLIEGGKSSGAPPPS (Aib2, αMeF(2F)6, 4Pal10, αMeL13, Orn16, K17(Z1), Aib20, D-Glu24, αMeY25, K31(Z1), C-term NH2; Z1=AEEA2-(γ-Glu)-(4-(4-tert-butylphenyl)butanoyl)) | – | 637 | – | –
5 | YXEGTXTSDXSIXLDXKAQXEFIKXLIEGGPSSGAPPPS (Aib2, αMeF(2F)6, 4Pal10, αMeL13, Orn16, Aib20, αMeY25; acylated K17, K24 (groups as in name); C-terminal amide) [Y-Aib-EGT-αMeF(2F)-TSD-4Pal-SI-αMeL-LD-Orn-K((2-[2-(2-Amino-ethoxy)-ethoxy]-acetyl)-(γ-Glu)-CO-(CH2)12-CO2H)AQ-Aib-EFIK((2-[2-(2-Amino-ethoxy)-ethoxy]-acetyl)-( …, listing 1 of 2 here] | > 9950 | – | – | –
6 | YXEGTXTSDXSIXLDXKAQXEFIXXLIEGGKSSGAPPPS (Aib2, αMeF(2F)6, 4Pal10, αMeL13, Orn16, K17(Z1), Aib20, D-Glu24, αMeY25, K31(Z1), C-term NH2; Z1=(εK)-AEEA-(γ-Glu)-CO-(CH2)12-CO2H) | – | 611 | 0.103 | 1.47
7 | YXEGTXTSDXSIXLDXKAQXKFIXXLIEGGPSSGAPPPS (Aib2, αMeF(2F)6, 4Pal10, αMeL13, Orn16, Aib20, D-Glu24, αMeY25; acylated K17, K21 (groups as in name); C-terminal amide) [Y-Aib-EGT-αMeF(2F)-TSD-4Pal-SI-αMeL-LD-Orn-K((2-[2-(2-Amino-ethoxy)-ethoxy]-acetyl)2-(γ-Glu)-CO-(CH2)10-CH3)AQ-Aib-K((2-[2-(2-Amino-ethoxy)-ethoxy]-acetyl)2-(γ- …, listing 2 of 5 here] | > 9950 | – | – | –
8 | YXEGTXTSDXSIXLDXKAQXEFIXXLIEGGKSSGAPPPS (Aib2, αMeF(2F)6, 4Pal10, αMeL13, Orn16, K17(Z1), Aib20, D-Glu24, αMeY25, K31(Z1), C-term NH2; Z1=(εK)-(γ-Glu)-(γ-Glu)-CO-(CH2)12-CO2H) | – | 412 | 0.234 | 1.69
9 | YXEGTXTSDXSIXLDXKAQXEFIKXLIEGGPSSGAPPPS (Aib2, αMeF(2F)6, 4Pal10, αMeL13, Orn16, Aib20, αMeY25; acylated K17, K24 (groups as in name); C-terminal amide) [Y-Aib-EGT-aMeF(2F)-TSD-4Pal-SI-aMeL-LD-Orn-K((2-[2-(2-Amino-ethoxy)-ethoxy]-acetyl)2-CO-(CH2)12-CO2H)AQ-Aib-EFIK((2-[2-(2-Amino-ethoxy)-ethoxy]-acetyl)2-CO-(CH2 …, listing 2 of 2 here] | > 9950 | – | – | –
10 | YXEGTXTSDXSIXLDXKAQXEFIXXLIEGGKSSGAPPPS (Aib2, αMeF(2F)6, 4Pal10, αMeL13, Orn16, Aib20, D-Glu24, αMeY25; acylated K17, K31 (groups as in name); C-terminal amide) [Y-Aib-EGT-αMeF(2F)-TSD-4Pal-SI-αMeL-LD-Orn-K((γ-Glu)-(2-[2-(2-Amino-ethoxy)-ethoxy]-acetyl)-CO-(CH2)12-CO2H)AQ-Aib-EFI-(D-Glu)-αMeY-LIEGGK((γ-Glu)-(2-[2-(2-Amin …, listing 2 of 2 here] | > 9950 | – | – | –
11 | YXEGTXTSDXSIXLDXKAQXEFIXXLIKGGPSSGAPPPS (Aib2, αMeF(2F)6, 4Pal10, αMeL13, Orn16, Aib20, D-Glu24, αMeY25; acylated K17, K28 (groups as in name); C-terminal amide) [Y-Aib-EGT-αMeF(2F)-TSD-4Pal-SI-αMeL-LD-Orn-K((2-[2-(2-Amino-ethoxy)-ethoxy]-acetyl)-(γ-Glu)-(4-(4-tert-butylphenyl)butanoyl))AQ-Aib-EFI-(D-Glu)-αMeY-LIK((2-[2-( …, listing 2 of 2 here] | > 9950 | – | – | –
12 | YXEGTXTSDXSIXLDXKAQXEFIXXLIEGGKSSGAPPPS (Aib2, αMeF(2F)6, 4Pal10, αMeL13, Orn16, K17(Z1), Aib20, D-Glu24, αMeY25, K31(Z1), C-term NH2; Z1=AEEA3-(γ-Glu)-CO-(CH2)14-CH3) | – | 0.62 | 0.0308 | –
13 | YXEGTXTSDXSIXLDXKAQXKFIXXLIEGGPSSGAPPPS (Aib2, αMeF(2F)6, 4Pal10, αMeL13, Orn16, Aib20, D-Glu24, αMeY25; acylated K17, K21 (groups as in name); C-terminal amide) [Y-Aib-EGT-αMeF(2F)-TSD-4Pal-SI-αMeL-LD-Orn-K((2-[2-(2-Amino-ethoxy)-ethoxy]-acetyl)-(y-Glu)-CO-(CH2)12-CO2H)AQ-Aib-K((2-[2-(2-Amino-ethoxy)-ethoxy]-acetyl)-(γ-G …, listing 3 of 5 here] | > 9950 | – | – | –
14 | YXEGTXTSDXSIXLDXKAQXKFIXXLIEGGPSSGAPPPS (Aib2, αMeF(2F)6, 4Pal10, αMeL13, Orn16, Aib20, D-Glu24, αMeY25; acylated K17, K21 (groups as in name); C-terminal amide) [Y-Aib-EGT-αMeF(2F)-TSD-4Pal-SI-αMeL-LD-Orn-K((2-[2-(2-Amino-ethoxy)-ethoxy]-acetyl)2-(γ-Glu)-(4-(4-tert-butylphenyl)butanoyl))AQ-Aib-K((2-[2-(2-Amino-ethoxy)-et …, listing 4 of 5 here] | > 9950 | – | – | –
15 | YXEGTXTSDXSIXLDXIAQXKFIXXLIKGGPSSGAPPPS (Aib2, αMeF(2F)6, 4Pal10, αMeL13, Orn16, Aib20, D-Glu24, αMeY25; acylated K21, K28 (groups as in name); C-terminal amide) | > 9950 | – | – | –
16 | YXEGTXTSDXSIXLDXKAQXEFIXXLIEGGKSSGAPPPS (Aib2, αMeF(2F)6, 4Pal10, αMeL13, Orn16, K17(Z1), Aib20, D-Glu24, αMeY25, K31(Z1), C-term NH2; Z1=AEEA2-CO-(CH2)12-CO2H) | – | 209 | 0.0557 | –
17 | YXEGTXTSDXSIXLDXKAQXEFIXXLIEGGKSSGAPPPS (Aib2, αMeF(2F)6, 4Pal10, αMeL13, Orn16, K17(Z1), Aib20, D-Glu24, αMeY25, K31(Z1), C-term NH2; Z1=(εK)-(εK)-(γ-Glu)-CO-(CH2)12-CO2H) | – | 223 | 0.163 | 1.6
18 | YXEGTXTSDXSIXLDXKAQXEFIXXLIEGGKSSGAPPPS (Aib2, αMeF(2F)6, 4Pal10, αMeL13, Orn16, K17(Z1), Aib20, D-Glu24, αMeY25, K31(Z1), C-term NH2; Z1=AEEA2-(εK)-CO-(CH2)12-CO2H) | – | 264 | 0.117 | 1.34
19 | YXEGTXTSDXSIXLDXKAQXKFIXXLIEGGPSSGAPPPS (Aib2, αMeF(2F)6, 4Pal10, αMeL13, Orn16, Aib20, D-Glu24, αMeY25; acylated K17, K21 (groups as in name); C-terminal amide) [Y-Aib-EGT-αMeF(2F)-TSD-4Pal-SI-αMeL-LD-Orn-K((2-[2-(2-Amino-ethoxy)-ethoxy]-acetyl)-(γ-Glu)-(4-(4-tert-butylphenyl)butanoyl))AQ-Aib-K((2-[2-(2-Amino-ethoxy)-eth …, listing 5 of 5 here] | > 9950 | – | – | –
20 | YXEGTXTSDXSIXLDXKAQXEFIXXLIEGGKSSGAPPPS (Aib2, αMeF6, 4Pal10, αMeL13, Orn16, Aib20, D-Glu24, αMeY25; acylated K17, K31 (groups as in name); C-terminal amide) | > 9950 | – | – | –
